Source: US20230365675A1 (published 2023)

Key:
[1] = molecular target: CD33-GFP fusion protein, wild type (WT), on 293FT cells (UniProt P20138); experiment: FACS, WT CD33-GFP on 293FT cells; further: unit not given here
[2] = molecular target: Mutant CD33-GFP JS23 (L23N) on 293FT cells (UniProt P20138); experiment: FACS, mutant CD33-GFP on 293FT cells
[3] = molecular target: Mutant CD33-GFP JS24 (Q24E) on 293FT cells (UniProt P20138); experiment: FACS, mutant CD33-GFP on 293FT cells
[4] = molecular target: Mutant CD33-GFP JS25 (V25M) on 293FT cells (UniProt P20138); experiment: FACS, mutant CD33-GFP on 293FT cells
[5] = molecular target: Mutant CD33-GFP JS28 (S28L) on 293FT cells (UniProt P20138); experiment: FACS, mutant CD33-GFP on 293FT cells
[6] = molecular target: Mutant CD33-GFP M10 (Y127A) on 293FT cells (UniProt P20138); experiment: FACS, mutant CD33-GFP on 293FT cells
[7] = molecular target: Mutant CD33-GFP M11 (L78T) on 293FT cells (UniProt P20138); experiment: FACS, mutant CD33-GFP on 293FT cells
[8] = molecular target: Mutant CD33-GFP M12 (G88S) on 293FT cells (UniProt P20138); experiment: FACS, mutant CD33-GFP on 293FT cells
[9] = molecular target: Mutant CD33-GFP M13 (R91E) on 293FT cells (UniProt P20138); experiment: FACS, mutant CD33-GFP on 293FT cells
[10] = molecular target: Mutant CD33-GFP M14 (E170R) on 293FT cells (UniProt P20138); experiment: FACS, mutant CD33-GFP on 293FT cells
[11] = molecular target: Mutant CD33-GFP M15 (Q171A) on 293FT cells (UniProt P20138); experiment: FACS, mutant CD33-GFP on 293FT cells
[12] = molecular target: Mutant CD33-GFP M16 (4889AII) on 293FT cells (UniProt P20138); experiment: FACS, mutant CD33-GFP on 293FT cells
[13] = molecular target: Mutant CD33-GFP M17 (F21Y) on 293FT cells (UniProt P20138); experiment: FACS, mutant CD33-GFP on 293FT cells
[14] = molecular target: Mutant CD33-GFP M18 (353AAL) on 293FT cells (UniProt P20138); experiment: FACS, mutant CD33-GFP on 293FT cells
[15] = molecular target: Mutant CD33-GFP M19 (348ATAI) on 293FT cells (UniProt P20138); experiment: FACS, mutant CD33-GFP on 293FT cells
[16] = molecular target: Mutant CD33-GFP M4 (R122D) on 293FT cells (UniProt P20138); experiment: FACS, mutant CD33-GFP on 293FT cells
[17] = molecular target: Mutant CD33-GFP M5 (AEAD), quadruple mutant, on 293FT cells (UniProt P20138); experiment: FACS, mutant CD33-GFP on 293FT cells
[18] = molecular target: Mutant CD33-GFP M9 (Y49, 50A) on 293FT cells (UniProt P20138); experiment: FACS, mutant CD33-GFP on 293FT cells
[19] = molecular target: Mutant CD33-GFP N20D on 293FT cells (UniProt P20138); experiment: FACS, mutant CD33-GFP on 293FT cells
[20] = molecular target: T1, Mutant CD33-GFP M1 (W22A) on 293FT cells (UniProt P20138 18-364); experiment: FACS, mutant CD33-GFP on 293FT cells
T1 construct: whole, on cells; not shown: GFP fused to CD33

[21] = molecular target: T2, Mutant CD33-GFP M2 (H45E) on 293FT cells (UniProt P20138 18-364); experiment: FACS, mutant CD33-GFP on 293FT cells
T2 construct: whole, on cells; not shown: GFP fused to CD33

[22] = molecular target: T3, Mutant CD33-GFP M3 (N99A) on 293FT cells (UniProt P20138 18-364); experiment: FACS, mutant CD33-GFP on 293FT cells
T3 construct: whole, on cells; not shown: GFP fused to CD33

[23] = molecular target: T4, Mutant CD33-GFP M6 (F43N) on 293FT cells (UniProt P20138 18-364); experiment: FACS, mutant CD33-GFP on 293FT cells
T4 construct: whole, on cells; not shown: GFP fused to CD33

[24] = molecular target: T5, Mutant CD33-GFP M7 (R98D) on 293FT cells (UniProt P20138 18-364); experiment: FACS, mutant CD33-GFP on 293FT cells
T5 construct: whole, on cells; not shown: GFP fused to CD33

[25] = molecular target: T6, Mutant CD33-GFP M8 (K52A) on 293FT cells (UniProt P20138 18-364); experiment: FACS, mutant CD33-GFP on 293FT cells
T6 construct: whole, on cells; not shown: GFP fused to CD33

[26] = molecular target: Biotinylated CD33 protein (UniProt P20138); experiment: Octet competition on biotinylated CD33; competitor 348
[27] = molecular target: Biotinylated CD33 protein (UniProt P20138); experiment: Octet competition on biotinylated CD33; competitor 353
[28] = molecular target: Biotinylated CD33 protein (UniProt P20138); experiment: Octet competition on biotinylated CD33; competitor 389
[29] = molecular target: Biotinylated CD33 protein (UniProt P20138); experiment: Octet competition on biotinylated CD33; competitor 413
[30] = molecular target: Biotinylated CD33 protein (UniProt P20138); experiment: Octet competition on biotinylated CD33; competitor 416
[31] = molecular target: Biotinylated CD33 protein (UniProt P20138); experiment: Octet competition on biotinylated CD33; competitor 420
[32] = molecular target: Biotinylated CD33 protein (UniProt P20138); experiment: Octet competition on biotinylated CD33; competitor 424
[33] = molecular target: Biotinylated CD33 protein (UniProt P20138); experiment: Octet competition on biotinylated CD33; competitor 426
[34] = molecular target: Biotinylated CD33 protein (UniProt P20138); experiment: Octet competition on biotinylated CD33; competitor 429
[35] = molecular target: Biotinylated CD33 protein (UniProt P20138); experiment: Octet competition on biotinylated CD33; competitor h195
CD33 on MOLM-13 cells = molecular target: T7, CD33 on MOLM-13 cells (human, UniProt P20138 18-364); experiment: FACS, MOLM-13 cells expressing CD33 against MOLM-13 CD33 knockout
T7 construct: whole, on cells; also called MOLM-13 cell line expressing CD33; wild-type MOLM-13 cells (CD33+)
Description: A naïve llama phage library was panned and screened to identify single domain antibodies that specifically recognize CD33. A MOLM-13 cell line expressing CD33 was used as a CD33-positive cell line, and a MOLM-13 cell line harboring a knockout of CD33 was used as a CD-33 negative cell line. A purified anti-human CD33 antibody was used as a positive control. Specific binding activity of identified binders was confirmed by FACS. The heavy chain variable region sequences of the identified binders are included herein.

[36] = molecular target: Biotinylated CD33 protein (UniProt P20138); experiment: Octet competition on biotinylated CD33; competitor 430

T5 sequence (P20138 18-364 R98D): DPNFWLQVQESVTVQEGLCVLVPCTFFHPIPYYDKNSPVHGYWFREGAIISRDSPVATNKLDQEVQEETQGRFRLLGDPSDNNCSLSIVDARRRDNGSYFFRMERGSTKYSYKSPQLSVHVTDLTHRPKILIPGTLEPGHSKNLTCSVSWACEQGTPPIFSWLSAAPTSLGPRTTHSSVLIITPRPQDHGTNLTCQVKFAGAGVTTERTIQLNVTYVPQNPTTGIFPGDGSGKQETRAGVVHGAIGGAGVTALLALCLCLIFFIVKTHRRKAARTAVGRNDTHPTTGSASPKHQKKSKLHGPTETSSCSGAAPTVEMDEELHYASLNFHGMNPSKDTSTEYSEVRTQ
Sequence of Mutant CD33-GFP M5 (AEAD), quadruple mutant, on 293FT cells (P20138 other isoform, or with tags, fused parts or gaps mutant): as the sequence (P20138 18-364 R98D) above, with W5A, H28E, D81R, N82A, R105D counted along it
Sequence of Mutant CD33-GFP M12 (G88S) on 293FT cells (P20138 18-364 G88S): as the sequence (P20138 18-364 R98D) above, with G71S, D81R counted along it
T4 sequence (P20138 18-364 F43N): as the sequence (P20138 18-364 R98D) above, with F26N, D81R counted along it
Sequence of Mutant CD33-GFP M10 (Y127A) on 293FT cells (P20138 18-364 Y127A): as the sequence (P20138 18-364 R98D) above, with D81R, Y110A counted along it
Sequence of Mutant CD33-GFP M14 (E170R) on 293FT cells (P20138 18-364 E170R): as the sequence (P20138 18-364 R98D) above, with D81R, E153R counted along it
Sequence of Mutant CD33-GFP M9 (Y49, 50A) on 293FT cells (P20138 other isoform, or with tags, fused parts or gaps mutant): as the sequence (P20138 18-364 R98D) above, with Y32A, Y33A, D81R counted along it
T1 sequence (P20138 18-364 W22A): as the sequence (P20138 18-364 R98D) above, with W5A, D81R counted along it
Sequence of CD33-GFP fusion protein, wild type (WT), on 293FT cells (P20138 18-364): as the sequence (P20138 18-364 R98D) above, with D81R counted along it
T7 sequence (P20138 18-364): as the sequence (P20138 18-364 R98D) above, with D81R counted along it
Sequence of Mutant CD33-GFP JS24 (Q24E) on 293FT cells (P20138 18-364 Q24E): as the sequence (P20138 18-364 R98D) above, with Q7E, D81R counted along it
Sequence of Mutant CD33-GFP JS28 (S28L) on 293FT cells (P20138 18-364 S28L): as the sequence (P20138 18-364 R98D) above, with S11L, D81R counted along it
Sequence of Mutant CD33-GFP M15 (Q171A) on 293FT cells (P20138 18-364 Q171A): as the sequence (P20138 18-364 R98D) above, with D81R, Q154A counted along it
Sequence of Mutant CD33-GFP JS23 (L23N) on 293FT cells (P20138 18-364 L23N): as the sequence (P20138 18-364 R98D) above, with L6N, D81R counted along it
Sequence of Mutant CD33-GFP N20D on 293FT cells (P20138 18-364 N20D): as the sequence (P20138 18-364 R98D) above, with N3D, D81R counted along it
Sequence of Mutant CD33-GFP M4 (R122D) on 293FT cells (P20138 18-364 R122D): as the sequence (P20138 18-364 R98D) above, with D81R, R105D counted along it
Sequence of Biotinylated CD33 protein (P20138 18-259 limits assumed): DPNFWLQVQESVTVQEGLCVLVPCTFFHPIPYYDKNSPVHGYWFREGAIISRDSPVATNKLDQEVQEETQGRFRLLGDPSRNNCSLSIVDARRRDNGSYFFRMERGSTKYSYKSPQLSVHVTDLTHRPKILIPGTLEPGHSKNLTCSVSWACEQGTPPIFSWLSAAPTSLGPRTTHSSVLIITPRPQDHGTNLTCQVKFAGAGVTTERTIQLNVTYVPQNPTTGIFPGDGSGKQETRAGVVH
Sequence of Mutant CD33-GFP JS25 (V25M) on 293FT cells (P20138 18-364 V25M): as the sequence (P20138 18-364 R98D) above, with V8M, D81R counted along it
Sequence of Mutant CD33-GFP M11 (L78T) on 293FT cells (P20138 18-364 L78T): as the sequence (P20138 18-364 R98D) above, with L61T, D81R counted along it
Sequence of Mutant CD33-GFP M13 (R91E) on 293FT cells (P20138 18-364 R91E): as the sequence (P20138 18-364 R98D) above, with R74E, D81R counted along it
T6 sequence (P20138 18-364 K52A): as the sequence (P20138 18-364 R98D) above, with K35A, D81R counted along it
Sequence of Mutant CD33-GFP M17 (F21Y) on 293FT cells (P20138 18-364 F21Y): as the sequence (P20138 18-364 R98D) above, with F4Y, D81R counted along it
T3 sequence (P20138 18-364 N99A): as the sequence (P20138 18-364 R98D) above, with D81R, N82A counted along it
T2 sequence (P20138 18-364 H45E): as the sequence (P20138 18-364 R98D) above, with H28E, D81R counted along it

B1: sdCD33_11 (VHH)
VHH: AVQLVESGGGLVQAGGSLRLSCAASGDTFANYAMGWFRQAPGKEREFVAAISWSDSSTHYADSVKGRFTIPRDNAKNAVYLQMDQLKPEDMAVYYCYAYIRGVGEVRYVDYWGQGTQVTVSS
notes: sdAb from a naive llama phage library; also called 430; sdAb430
Work on B1 yielded an FACS binding data [1] of 97.6, an FACS binding data [2] of 99.2 and an FACS binding data [3] of 99.6. The FACS binding data [4] was 99.7, the FACS binding data [5] was 99.7 and the FACS binding data [6] was 94.2. It also gave an FACS binding data [7] of 73.8, an FACS binding data [8] of 98.5 and an FACS binding data [9] of 98.7. For the same binder, the FACS binding data [10] was 97.4, the FACS binding data [11] was 97.2 and the FACS binding data [12] was 97.4. The FACS binding data [13] was 96.1, the FACS binding data [14] was 99.4 and the FACS binding data [15] was 99.8. It also gave an FACS binding data [16] of 98.4, an FACS binding data [17] of 0.79 and an FACS binding data [18] of 1.01. It also gave an FACS binding data [19] of 97.5, an FACS binding data [20] of 99.4 and an FACS binding data [21] of 99.3. The FACS binding data [22] was 99.3, the FACS binding data [23] was 98.8 and the FACS binding data [24] was 98.5. For the same binder, the FACS binding data [25] was 97.1, the Octet signal [26] was -0.212 and the Octet signal [27] was -0.112. The Octet signal [28] was 0.0436, the Octet signal [29] was -0.108 and the Octet signal [30] was -0.268. The Octet signal [31] was -0.169, the Octet signal [32] was -0.377 and the Octet signal [33] was -0.227. For the same binder, the Octet signal [34] was -0.29, the Octet signal [35] was 0.136 and the binding result (CD33 on MOLM-13 cells) was “binds”.

B2: sdCD33_5 (VHH)
VHH: QVQLQESGGGLVQPGGSLRLSCAASGSVFSIYAMAWYRQAPGKQRELVAVITSGGATNYADSVKGRFTISRDIAKKTLYLQMNTLKPEDTAVYYCYAHLLIQPFDRFYDYWGQGTQVTVSS
notes: sdAb from a naive llama phage library; also called 413; sdAb413
With B2 the FACS binding data [1] was 98, the FACS binding data [2] was 98.4 and the FACS binding data [3] was 97. The FACS binding data [4] was 99.5, the FACS binding data [5] was 99.4 and the FACS binding data [6] was 90.2. For the same binder, the FACS binding data [7] was 58.5, the FACS binding data [8] was 98.6 and the FACS binding data [9] was 98.5. It also gave an FACS binding data [10] of 98.2, an FACS binding data [11] of 98.6 and an FACS binding data [12] of 98.3. The FACS binding data [13] was 84.6, the FACS binding data [14] was 49.2 and the FACS binding data [15] was 99.3. For the same binder, the FACS binding data [16] was 76, the FACS binding data [17] was 0.81 and the FACS binding data [18] was 0.79. The FACS binding data [19] was 56.7, the FACS binding data [20] was 76.4 and the FACS binding data [21] was 5.93. For the same binder, the FACS binding data [22] was 96.8, the FACS binding data [23] was 97.5 and the FACS binding data [24] was 97. It also gave an FACS binding data [25] of 91.4, an Octet signal [26] of -0.024 and an Octet signal [27] of 0.248. For the same binder, the Octet signal [28] was 0.483, the Octet signal [30] was -0.0586 and the Octet signal [31] was 0.15. For the same binder, the Octet signal [32] was -0.0796, the Octet signal [33] was 0.0667 and the Octet signal [34] was -0.0887. For the same binder, the Octet signal [36] was 0.63, the Octet signal [35] was 0.648 and the binding result (CD33 on MOLM-13 cells) was “binds”.

B3: sdCD33_6 (VHH)
VHH: EVQLVESGGGLVQPRGSLRLSCVVSGSMSSIYSMSWYRQPPGKQRELVAHITTTGTTNYIDSVKGRFTISIDNDINVIYLQMNTLKPEDTAVYYCNAGLKAGPGPRLDYWGLGTQVTVSS
notes: sdAb from a naive llama phage library; also called 416; sdAb416
With B3 the FACS binding data [1] was 98.8, the FACS binding data [2] was 94.3 and the FACS binding data [3] was 98.6. It also gave an FACS binding data [4] of 99, an FACS binding data [5] of 99.6 and an FACS binding data [6] of 98.9. The FACS binding data [7] was 45.1, the FACS binding data [8] was 99.1 and the FACS binding data [9] was 99.2. It also gave an FACS binding data [10] of 99, an FACS binding data [11] of 98.9 and an FACS binding data [12] of 80.8. For the same binder, the FACS binding data [13] was 99.1, the FACS binding data [14] was 99.8 and the FACS binding data [15] was 99.6. The FACS binding data [16] was 99.3, the FACS binding data [17] was 0.24 and the FACS binding data [18] was 99.1. For the same binder, the FACS binding data [19] was 99, the FACS binding data [20] was 1.25 and the FACS binding data [21] was 96.6. The FACS binding data [22] was 98.7, the FACS binding data [23] was 97.9 and the FACS binding data [24] was 98.6. The FACS binding data [25] was 98.9, the Octet signal [26] was 0.229 and the Octet signal [27] was 0.438. For the same binder, the Octet signal [28] was 0.456, the Octet signal [29] was 0.376 and the Octet signal [31] was 0.34. For the same binder, the Octet signal [32] was 0.22, the Octet signal [33] was 0.514 and the Octet signal [34] was 0.261. The Octet signal [36] was 0.697, the Octet signal [35] was 0.565 and the binding result (CD33 on MOLM-13 cells) was “binds”.
